Data from IntAct's records for PubMed 19229292.

Tests used:
dlg3_rat Dlg3 = dlg3_rat Dlg3 (UniProt Q62936)
dlg1_rat Dlg1 = dlg1_rat Dlg1 (UniProt Q62696)
dlg2_rat Dlg2 = dlg2_rat Dlg2 (UniProt Q63622)

Measured: effect of a mutation on the interaction

Sequence of dlg3_rat Dlg3 (Q62936 whole entry): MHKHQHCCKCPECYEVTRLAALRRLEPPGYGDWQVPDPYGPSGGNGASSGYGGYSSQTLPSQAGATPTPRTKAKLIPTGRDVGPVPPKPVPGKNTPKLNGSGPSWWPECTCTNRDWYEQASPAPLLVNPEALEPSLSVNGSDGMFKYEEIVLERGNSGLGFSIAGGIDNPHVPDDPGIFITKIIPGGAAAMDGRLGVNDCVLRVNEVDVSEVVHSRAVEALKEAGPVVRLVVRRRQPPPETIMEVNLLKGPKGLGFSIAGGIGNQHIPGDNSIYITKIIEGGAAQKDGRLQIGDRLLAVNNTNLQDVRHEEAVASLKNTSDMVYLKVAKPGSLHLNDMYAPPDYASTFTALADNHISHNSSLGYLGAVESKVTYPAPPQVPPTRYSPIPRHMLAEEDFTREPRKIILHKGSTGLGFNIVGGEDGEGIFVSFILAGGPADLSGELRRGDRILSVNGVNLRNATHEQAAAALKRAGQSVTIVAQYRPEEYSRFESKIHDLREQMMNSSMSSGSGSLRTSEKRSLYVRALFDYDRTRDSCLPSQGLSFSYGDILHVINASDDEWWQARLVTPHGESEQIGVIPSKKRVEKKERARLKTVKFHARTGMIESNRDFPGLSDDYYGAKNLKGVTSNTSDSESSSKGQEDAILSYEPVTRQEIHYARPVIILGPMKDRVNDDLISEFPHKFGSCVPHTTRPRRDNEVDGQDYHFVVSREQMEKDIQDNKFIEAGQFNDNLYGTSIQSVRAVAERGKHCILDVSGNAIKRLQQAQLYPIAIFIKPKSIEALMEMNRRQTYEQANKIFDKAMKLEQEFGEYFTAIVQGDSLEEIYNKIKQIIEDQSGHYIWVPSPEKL
Sequence of dlg1_rat Dlg1 (Q62696 whole entry): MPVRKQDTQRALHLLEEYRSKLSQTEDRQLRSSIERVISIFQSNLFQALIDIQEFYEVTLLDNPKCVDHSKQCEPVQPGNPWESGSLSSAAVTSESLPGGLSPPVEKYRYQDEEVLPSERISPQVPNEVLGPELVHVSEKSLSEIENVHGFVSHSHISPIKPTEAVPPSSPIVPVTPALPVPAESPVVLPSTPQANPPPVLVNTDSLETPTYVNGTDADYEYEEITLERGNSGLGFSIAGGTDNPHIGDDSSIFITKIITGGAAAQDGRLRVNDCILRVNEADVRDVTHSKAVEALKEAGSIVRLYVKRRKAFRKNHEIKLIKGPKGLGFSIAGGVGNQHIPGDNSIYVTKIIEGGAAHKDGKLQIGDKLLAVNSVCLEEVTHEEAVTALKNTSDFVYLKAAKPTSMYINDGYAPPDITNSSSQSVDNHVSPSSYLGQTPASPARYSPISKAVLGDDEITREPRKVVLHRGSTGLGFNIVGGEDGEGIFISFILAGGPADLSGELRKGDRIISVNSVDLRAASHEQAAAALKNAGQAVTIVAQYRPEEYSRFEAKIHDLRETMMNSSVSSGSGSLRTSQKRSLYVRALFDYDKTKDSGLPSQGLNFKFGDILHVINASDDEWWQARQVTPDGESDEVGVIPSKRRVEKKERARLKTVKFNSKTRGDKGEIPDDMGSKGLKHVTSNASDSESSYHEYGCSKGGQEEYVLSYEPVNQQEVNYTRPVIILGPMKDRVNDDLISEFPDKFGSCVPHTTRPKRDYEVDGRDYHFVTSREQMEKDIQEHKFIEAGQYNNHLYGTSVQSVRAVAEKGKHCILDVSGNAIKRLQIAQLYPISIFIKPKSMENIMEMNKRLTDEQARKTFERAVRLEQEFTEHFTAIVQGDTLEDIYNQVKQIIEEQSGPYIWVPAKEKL
Sequence of dlg2_rat Dlg2 (Q63622 whole entry, looked up): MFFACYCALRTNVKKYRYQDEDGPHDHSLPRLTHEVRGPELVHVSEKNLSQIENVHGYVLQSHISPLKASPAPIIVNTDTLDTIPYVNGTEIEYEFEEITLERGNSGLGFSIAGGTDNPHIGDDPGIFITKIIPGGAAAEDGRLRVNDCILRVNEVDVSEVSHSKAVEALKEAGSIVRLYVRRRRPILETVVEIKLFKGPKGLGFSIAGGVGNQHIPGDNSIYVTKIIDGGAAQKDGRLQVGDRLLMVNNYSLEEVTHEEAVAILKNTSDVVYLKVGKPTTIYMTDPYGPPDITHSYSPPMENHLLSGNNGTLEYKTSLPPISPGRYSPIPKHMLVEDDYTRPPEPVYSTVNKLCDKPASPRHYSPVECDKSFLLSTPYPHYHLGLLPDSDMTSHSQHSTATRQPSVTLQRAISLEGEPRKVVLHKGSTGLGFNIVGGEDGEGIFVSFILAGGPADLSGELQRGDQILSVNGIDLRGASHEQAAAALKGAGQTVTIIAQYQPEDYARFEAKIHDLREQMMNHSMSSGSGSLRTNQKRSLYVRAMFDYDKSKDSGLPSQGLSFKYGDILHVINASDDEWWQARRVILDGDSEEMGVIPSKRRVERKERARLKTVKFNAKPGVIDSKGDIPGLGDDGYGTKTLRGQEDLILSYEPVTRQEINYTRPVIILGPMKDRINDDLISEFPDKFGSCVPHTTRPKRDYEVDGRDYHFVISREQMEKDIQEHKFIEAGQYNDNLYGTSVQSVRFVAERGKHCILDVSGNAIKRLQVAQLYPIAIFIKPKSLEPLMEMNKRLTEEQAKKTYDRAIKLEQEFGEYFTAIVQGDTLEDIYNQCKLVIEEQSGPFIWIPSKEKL

Diacylglycerol kinase zeta (Rattus norvegicus (Rat)), O08560 V929A
disrupting interaction: all assays above
